In the assay the target is GSK3β used in the surface plasmon resonance binding assays (UniProt P49841 1-420). Description: SPR.

Two molecules from article PMC2704382 (Cell, 2009) can be followed below.

Chain of GSK3β used in the surface plasmon resonance binding assays (P49841 whole entry): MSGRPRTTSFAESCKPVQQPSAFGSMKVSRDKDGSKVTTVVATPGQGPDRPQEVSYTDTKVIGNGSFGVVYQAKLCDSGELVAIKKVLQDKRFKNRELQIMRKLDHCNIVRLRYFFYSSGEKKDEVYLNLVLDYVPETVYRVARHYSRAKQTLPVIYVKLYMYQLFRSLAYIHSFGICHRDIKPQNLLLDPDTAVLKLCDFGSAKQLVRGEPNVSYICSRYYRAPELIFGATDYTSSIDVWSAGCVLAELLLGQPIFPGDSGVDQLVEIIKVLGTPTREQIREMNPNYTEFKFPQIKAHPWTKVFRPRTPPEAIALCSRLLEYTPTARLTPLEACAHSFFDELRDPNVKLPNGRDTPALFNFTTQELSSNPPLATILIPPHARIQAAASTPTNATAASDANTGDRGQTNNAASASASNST

On to SFSFIQLSLGAAGER (peptide, UniProt Q811T9 211-225, looked up) [DISCtide2 (15-mer peptide, mDISC1 amino acids 211 to 225)], for which the “stoichiometry N” value was 2 peptide:protein.

As for PADIASLPGFQDTFTSSFSFIQLSLGAAGERGEAEGCLPSREAE (peptide, UniProt Q811T9 195-238, looked up) [DISCtide-1 (mDISC1 amino acids 195 to 238)], the “stoichiometry N” value was 2 peptide:protein.
